Consider 34 molecules from patent US20230021388A1 (VELOSBIO, published 2023).

Changes are numbered by the printed parent chain. Names may count otherwise.

What is called Kd is a measure of binding affinity in units of concentration.

Test [1] has as its target T1, recombinant human ROR1 extracellular domain (human, UniProt Q01973 30-406).
T1 construct: biotinylated for the filter lifts; also called huROR1-ECD; human ROR1-ECD
Description: ELISA with prolonged wash, soluble Fab on coated huROR1-ECD. How it is done:
The previously described filter lift assay provides a visual, qualitative assessment of antigen binding (Example 1). In order to assess the ROR1 binding activity of Ab1 Fab in a more quantitative fashion, an ELISA assay was developed. A 96-well Costar-3366 plate was coated with 50 μL/well of 1 μg/mL human ROR1-ECD (ACROBiosystems, cat. #RO1-H522y) in PBS overnight at 4° C. The plate was rinsed once with PBS-T and blocked with 100 μL/well of 5% M-P for 1 h at 25° C. Fab samples were serially diluted 3-fold using 5% M-P and 50 μL/well was incubated for 1 h at 25° C. The plate was washed three times with PBS-T and 50 μL/well anti-human kappa, and HRP conjugate (Southern Biotech, cat. #2060-05) diluted 10,000-fold in 5% M-P was added for 1 h at 25° C. In certain assays (extended wash format), the plate was placed in large volumes (up to 1 L) of PBS-T and incubated, with mixing, for 2-5 h prior to the addition of anti-human kappa, HRP conjugate. The plate was washed three times with PBS-T, and developed with 50 μL/well 1-Step Ultra TMB-ELISA (Thermo Scientific, cat. #34028). The reaction was terminated by the addition of 2 N H2504 and the A450 was determined using a Spectramax plate reader.
Subsequently, the libraries were screened by capture lift to identify the strongest binding variants. The identity of the variants was determined by DNA sequencing and the relative affinities were characterized using an ELISA (described in Example 2) modified to enable further discrimination between the highest affinity variants. Specifically, following the initial incubation with soluble Fab, the plates were washed for a prolonged time (>1 h) in large volumes of PBS-T. The plates were then developed as described in Example 2.
On the technique in general: ELISA stands for enzyme-linked immunosorbent assay.

In test [2] the target is T1, recombinant human ROR1 extracellular …. Description: capture filter lift. On the procedure:
Subsequently, the filter was applied to the agar plates as described above. For detection of antigen binding, the filter was rinsed briefly in PBS, and transferred to biotinylated huROR1-ECD (ACROBiosystems, cat. #RO1-H522y) in 5% M-P.
Filters were incubated with 2.3 nM biotinylated ROR1 diluted in 5% M-P for 2 h at 25° C. with constant agitation, and washed 5 times, 2 minutes each wash, with constant agitation in PBS-T. Alternatively, filters were washed more rapidly using a squirt bottle and sintered glass funnel for vacuum filtration. The filters were transferred to 10 mL of High Sensitivity Neutravidin, HRP conjugate (Thermo Scientific, cat. #31030) diluted 5000-fold in 1% BSA in PBS and incubated for 1 h at 25° C. The filters were then washed 5 times in PBS-T and were developed with 1-Step Ultra TMB-Blotting.
All libraries were initially screened by capture lift to identify variants with improved binding. The capture lift assay, described in Example 1, enables the filter lift assay to discern variants that bind antigen more strongly based on the staining intensity. In order to determine the optimal concentration of antigen to use for screening, biotinylated huROR1-ECD was titrated on a capture lift of Ab1 Fab. Binding to Ab1 was clearly visible at antigen concentrations ≥23 nM and the signal was diminished at lower huROR1 concentrations. […] In addition, for more stringent screening, filters were probed with lower concentrations of antigen and/or development of the filter was terminated earlier, before the Ab1 staining was visible. […] In this example, approximately 250 library variants were plated. Twelve variants clearly bound huROR1 (FIG. 4, numbered).

T1 sequence (Q01973 30-406 limits assumed): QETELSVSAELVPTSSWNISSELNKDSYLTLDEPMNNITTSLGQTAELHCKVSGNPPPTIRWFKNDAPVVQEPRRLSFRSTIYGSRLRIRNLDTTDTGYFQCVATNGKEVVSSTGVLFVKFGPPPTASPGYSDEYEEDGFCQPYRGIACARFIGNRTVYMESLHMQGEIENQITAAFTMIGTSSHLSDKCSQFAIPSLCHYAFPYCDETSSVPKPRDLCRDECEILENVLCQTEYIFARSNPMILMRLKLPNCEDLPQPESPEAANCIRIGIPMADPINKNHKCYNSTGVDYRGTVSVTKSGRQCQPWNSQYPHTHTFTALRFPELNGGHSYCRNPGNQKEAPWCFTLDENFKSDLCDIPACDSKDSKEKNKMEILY

B1: Ab1 Fab variant H1 T32A + H2 F58I (Fab, V domains shown)
VH: QVQLQESGPGLVKPSQTLSLTCTVSGYAFAAYNIHWVRQAPGQGLEWMGSIDPYDGGSSYNQKFKDRLTISKDTSKNQVVLTMTNMDPVDTATYYCARGWYYFDYWGHGTLVTVSS
VL: DIVMTQTPLSLPVTPGEPASISCRASKSISKYLAWYQQKPGQAPRLLIYSGSTLQSGIPPRFSGSGYGTDFTLTINNIESEDAAYYFCQQHDESPYTFGEGTKVEIK
notes: Fab
With B1, the Kd in test [1] came to 4.5 nM.

B2: Ab1 Fab variant H1 T32A + H2 F58V, G66E, S69V (Fab, V domains shown)
VH: B1 VH with I51V, G56E, S59V
VL: B1 VL
notes: Fab
Regarding B2, the Kd in test [1] came to 8 nM.

B3: Ab1 Fab variant L3 D110H (Fab, V domains shown)
VH: B1 VH with A30T, I51F
VL: B1 VL with D92H
notes: Fab
Turning to B3, in test [2], the binding result is on record as “binds”.

B4: Ab1 Fab variant H1 T32A + H2 F58V, S69V, N71H (Fab, V domains shown)
VH: B1 VH with I51V, S59V, N61H
VL: B1 VL
notes: Fab
Turning to B4, the equilibrium dissociation constant (Kd) in test [1] came to 3.9 nM.

B5: Ab1 Fab variant L3 D110N (Fab, V domains shown)
VH: B1 VH with A30T, I51F
VL: B1 VL with D92N
notes: Fab
As for B5, the binding result in test [2] was “binds”.

B6: Ab1 Fab variant L3 S135G (Fab, V domains shown)
VH: B1 VH with A30T, I51F
VL: B1 VL with S94G
notes: Fab
With B6, the binding result in test [2] is reported as “binds”.

B7: Ab1 Fab variant H1 T32A + H2 G66E, S69V, N71H (Fab, V domains shown)
VH: B1 VH with I51F, G56E, S59V, N61H
VL: B1 VL
notes: Fab
With B7, the Kd in test [1] is 3.2 nM.

B8: Ab1 Fab variant H1 T32A + H2 F58I, S69V (Fab, V domains shown)
VH: B1 VH with S59V
VL: B1 VL
notes: Fab
On to B8, for which, in test [1], the Kd came out at 8.5 nM.

B9: Ab1 Fab variant L3 T138S (Fab, V domains shown)
VH: B1 VH with A30T, I51F
VL: B1 VL with T97S
notes: Fab
Consider B9, for which the binding result in test [2] is recorded as “binds”.

B10: Ab1 Fab variant L3 T138F (Fab, V domains shown)
VH: B1 VH with A30T, I51F
VL: B1 VL with T97F
notes: Fab
Regarding B10, the binding result in test [2] is reported as “binds”.

B11: Ab1 Fab variant L3 Q108L (Fab, V domains shown)
VH: B1 VH with A30T, I51F
VL: B1 VL with Q90L
notes: Fab
Regarding B11, the binding result in test [2] is reported as “binds”.

B12: Ab1 Fab variant L3 H109Q (Fab, V domains shown)
VH: B1 VH with A30T, I51F
VL: B1 VL with H91Q
notes: Fab
In the case of B12, the binding result in test [2] is “binds”.

B13: Ab1 Fab variant H1 T32A + H2 G66E (Fab, V domains shown)
VH: B1 VH with I51F, G56E
VL: B1 VL
notes: Fab
As to B13, the dissociation constant (Kd) in test [1] was found to be 2.7 nM.

B14: Ab1 Fab variant H1 T32A + H2 S69V (Fab, V domains shown)
VH: B1 VH with I51F, S59V
VL: B1 VL
notes: Fab
Take B14: the Kd in test [1] turned out to be 3.3 nM.

B15: Ab1 Fab variant H1 T32A + H2 N71H (Fab, V domains shown)
VH: B1 VH with I51F, N61H
VL: B1 VL
notes: Fab
With B15, the Kd in test [1] came out at 2.1 nM.

B16: Ab1 Fab variant H3 Y138V (Fab, V domains shown)
VH: B1 VH with A30T, I51F, Y105V
VL: B1 VL
notes: Fab
As to B16, in test [2], the binding result is listed as “binds”.

B17: Ab1 Fab variant L3 H109N (Fab, V domains shown)
VH: B1 VH with A30T, I51F
VL: B1 VL with H91N
notes: Fab
For B17, in test [2], the binding result is “binds”.

B18: Ab1 Fab variant H1 T32A + H2 F58I, G66E, N71H (Fab, V domains shown)
VH: B1 VH with G56E, N61H
VL: B1 VL
notes: Fab
For B18, in test [1], the Kd was found to be 3.4 nM.

B19: Ab1 Fab variant L3 S135H (Fab, V domains shown)
VH: B1 VH with A30T, I51F
VL: B1 VL with S94H
notes: Fab
For B19, the binding result in test [2] is “binds”.

B20: Ab1 Fab variant L3 Q108A (Fab, V domains shown)
VH: B1 VH with A30T, I51F
VL: B1 VL with Q90A
notes: Fab
As to B20, in test [2], the binding result is listed as “binds”.

B21: Ab1 Fab variant L3 S135V (Fab, V domains shown)
VH: B1 VH with A30T, I51F
VL: B1 VL with S94V
notes: Fab
As for B21, the binding result in test [2] is given as “binds”.

B22: Ab1 Fab variant H1 T32A + H2 F58V, N71H (Fab, V domains shown)
VH: B1 VH with I51V, N61H
VL: B1 VL
notes: Fab
Regarding B22, the Kd in test [1] turned out to be 2.4 nM.

B23: Ab1 Fab variant L3 E111L (Fab, V domains shown)
VH: B1 VH with A30T, I51F
VL: B1 VL with E93L
notes: Fab
Consider B23, for which, in test [2], the binding result is recorded as “binds”.

B24: Ab1 Fab variant L3 Y137V (Fab, V domains shown)
VH: B1 VH with A30T, I51F
VL: B1 VL with Y96V
notes: Fab
Turning to B24, the binding result in test [2] was “binds”.

B25: Ab1 Fab variant H3 Y138T (Fab, V domains shown)
VH: B1 VH with A30T, I51F, Y105T
VL: B1 VL
notes: Fab
As for B25, the binding result in test [2] is given as “binds”.

B26: Ab1 Fab variant L3 S135P (Fab, V domains shown)
VH: B1 VH with A30T, I51F
VL: B1 VL with S94P
notes: Fab
Regarding B26, the binding result in test [2] was “binds”.

B27: Ab1 Fab variant L3 Y137T (Fab, V domains shown)
VH: B1 VH with A30T, I51F
VL: B1 VL with Y96T
notes: Fab
Consider B27, for which, in test [2], the binding result was “binds”.

B28: Ab1 Fab variant H1 T32A + H2 F58V (Fab, V domains shown)
VH: B1 VH with I51V
VL: B1 VL
notes: Fab
On to B28, for which the Kd in test [1] was 3.2 nM.

B29: Ab1 Fab variant L3 E111I (Fab, V domains shown)
VH: B1 VH with A30T, I51F
VL: B1 VL with E93I
notes: Fab
As to B29, in test [2], the binding result is listed as “binds”.

B30: Ab1 Fab variant L3 Q108R (Fab, V domains shown)
VH: B1 VH with A30T, I51F
VL: B1 VL with Q90R
notes: Fab
In the case of B30, the binding result in test [2] was “binds”.

B31: Ab1 Fab variant H1 T32A + H2 F58V, G66E (Fab, V domains shown)
VH: B1 VH with I51V, G56E
VL: B1 VL
notes: Fab
Consider B31, for which, in test [1], the Kd came out at 3 nM.

B32: Ab1 Fab variant L3 Q107S (Fab, V domains shown)
VH: B1 VH with A30T, I51F
VL: B1 VL with Q89S
notes: Fab
As for B32, the binding result in test [2] is “binds”.

B33: Ab1 Fab variant H1 T32A + H2 F58I, G66E (Fab, V domains shown)
VH: B1 VH with G56E
VL: B1 VL
notes: Fab
On to B33, for which the Kd in test [1] was 5 nM.

B34: Ab1 Fab variant H1 T32A + H2 F58I, N71H (Fab, V domains shown)
VH: B1 VH with N61H
VL: B1 VL
notes: Fab
As for B34, the Kd in test [1] came out at 2.2 nM.
